The target of data set [1] is Vps75, full-length (budding yeast) (UniProt P53853). The data set is described as follows: SAXS; 500 mM NaCl, 0.5 to 10 mg/ml, 10°C.
Data set [2] shares this target. The data set is described as follows: SAXS; 150 mM NaCl, 0.5 to 10 mg/ml, 10°C.
Data set [3] shares this target. Nature of the data set: SEC-MALS; 150 mM NaCl, 20 mM HEPES-KOH pH 7.5; MAbPac SEC-1 column (Figure 1) or Superdex S200 10/300 (Figures 5 and 7). A general note: Size exclusion chromatography separates by hydrodynamic size, large species first.
Data set [4] has the same target. Nature of the data set: SEC-MALS; 500 mM NaCl, 20 mM HEPES-KOH pH 7.5; MAbPac SEC-1 column (Figure 1) or Superdex S200 10/300 (Figure 7).
Data set [5] has as its target Vps75 Y35C dimers labelled with Maleimide-PEG2-Biotin (budding yeast) (UniProt P53853). The data set is described as follows: BLI; biotinylated chaperone dimers on streptavidin biosensors, unlabelled wild-type chaperone in solution; 150 mM NaCl, 20 mM HEPES.KOH pH 7.5, 0.1% BSA; steady state, one site saturation fit; two dimers to tetramer. (Biolayer interferometry detects binding as a change in optical thickness at a sensor tip.)

Data set [6] deals with Nucleosome Assembly Protein 1 (Nap1) (budding yeast) (UniProt P25293). The data set is described as follows: SEC-MALS; 150 mM NaCl, 20 mM HEPES-KOH pH 7.5; MAbPac SEC-1 column (Figure 1) or Superdex S200 10/300 (Figures 5 and 7).
For data set [7] the target is unchanged. Nature of the data set: SEC-MALS; 500 mM NaCl, 20 mM HEPES-KOH pH 7.5; MAbPac SEC-1 column (Figure 1) or Superdex S200 10/300 (Figure 7).
The target of data set [8] is Nap1 L120C dimers labelled with Maleimide-PEG2-Biotin (budding yeast) (UniProt P25293). Nature of the data set: BLI; biotinylated chaperone dimers on streptavidin biosensors, unlabelled wild-type chaperone in solution; 150 mM NaCl, 20 mM HEPES.KOH pH 7.5, 0.1% BSA; steady state, one site saturation fit; two dimers to tetramer.
Data set [9] deals with Vps75 lacking the unstructured C-terminal domain (residues 1–223) (budding yeast) (UniProt P53853). Nature of the data set: SAXS; 500 mM NaCl, 0.5 to 10 mg/ml, 10°C.
Data set [10] shares this target. The data set is described as follows: SEC-MALS; 150 mM NaCl, 20 mM HEPES-KOH pH 7.5; MAbPac SEC-1 column (Figure 1) or Superdex S200 10/300 (Figures 5 and 7).
The target is the same in data set [11]. Nature of the data set: SEC-MALS; 500 mM NaCl, 20 mM HEPES-KOH pH 7.5; MAbPac SEC-1 column (Figure 1) or Superdex S200 10/300 (Figure 7).
Data set [12] concerns the molecule itself. The data set is described as follows: PELDOR; spin-labelled protein, 100–150 μM dimer, 150 mM NaCl, 20 mM HEPES-KOH pH 7.5 in deuterium oxide, mixed 1:1 with D8-glycerol; tetrameric conditions.
Data set [13] deals with the molecule itself. The data set is described as follows: SEC-MALS; 150 mM NaCl, 20 mM HEPES-KOH pH 7.5; MAbPac SEC-1 column (Figure 1) or Superdex S200 10/300 (Figures 5 and 7).
Data set [14] deals with the molecule itself. The data set is described as follows: PELDOR; spin-labelled protein, 100–150 μM dimer, 500 mM NaCl, 20 mM HEPES-KOH pH 7.5 in deuterium oxide, mixed 1:1 with D8-glycerol; dimeric conditions.

The stoichiometry N is a count of units in the complex or per binding partner. The Kd is the equilibrium constant for the complex coming apart. Lower therefore signals tighter binding. As for “Vps75, full-length (from UniProt P53853 1-264) (natural protein)”, the stoichiometry N in [1] was found to be 2; in [2], 4; in data set [3], 4; in data set [4] it was 2. This molecule also gave a Kd in [5] of 600 nM.
On to “Nucleosome Assembly Protein 1 (Nap1) (from UniProt P25293 1-417) (natural protein)”, for which the stoichiometry N in data set [6] worked out at 4; in data set [7], 2. Further, the Kd in [8] amounted to 3570 nM.
As for “Vps75 lacking the unstructured C-terminal domain (residues 1–223) (from UniProt P53853 1-223) (domain or fragment)”, the stoichiometry N in data set [9] worked out at 2; in [10] it was 4; in data set [11] it was 2.

B1: Vps75 K117R1 (natural protein, budding yeast, UniProt P53853 1-264, looked up)
chain: MMSDQENENEHAKAFLGLAKAEEEVDAIEREVELYRLNKMKPVYEKRDAYIDEIAEFWKIVLSQHVSFANYIRASDFKYIDTIDKIKVEWLALESEMYDTRDFSITFHFHGIEGDFCEQQVTKVFQIKKGKDDQEDGILTSEPVPIEWPQSYDSINPDLIKDKRSPEGKKKYRQGMKTIFGWFRWTGLKPGKEFPHGDSLASLFSEEIYPFAVKYYAEAQRDLEDEEGESGLSADGDSEDDDGSLGEVDLPLSDEEPSSKKRKV
modifications: MTSL spin label (R1) on cysteine 117; deuterated protein
notes: Vps75 of budding yeast, open reading frame, unique cysteine at position 117; also called Vps75 K117C; not shown: His6, N-terminal, cleaved
With B1, the “stoichiometry N” value in [12] came to 4.

B2: Vps75 K170E (natural protein, budding yeast, UniProt P53853 1-264, looked up)
chain: MMSDQENENEHAKAFLGLAKAEEEVDAIEREVELYRLNKMKPVYEKRDAYIDEIAEFWKIVLSQHVSFANYIRASDFKYIDTIDKIKVEWLALESEMYDTRDFSITFHFHGIEGDFKEQQVTKVFQIKKGKDDQEDGILTSEPVPIEWPQSYDSINPDLIKDKRSPEGKEKYRQGMKTIFGWFRWTGLKPGKEFPHGDSLASLFSEEIYPFAVKYYAEAQRDLEDEEGESGLSADGDSEDDDGSLGEVDLPLSDEEPSSKKRKV
notes: Vps75 of budding yeast, point mutant in the C21A/C212A construct
As to B2, the “stoichiometry N” value in [13] is around 2.

B3: Vps75 E56R1 (natural protein, budding yeast, UniProt P53853 1-264, looked up)
chain: MMSDQENENEHAKAFLGLAKAEEEVDAIEREVELYRLNKMKPVYEKRDAYIDEIACFWKIVLSQHVSFANYIRASDFKYIDTIDKIKVEWLALESEMYDTRDFSITFHFHGIEGDFKEQQVTKVFQIKKGKDDQEDGILTSEPVPIEWPQSYDSINPDLIKDKRSPEGKKKYRQGMKTIFGWFRWTGLKPGKEFPHGDSLASLFSEEIYPFAVKYYAEAQRDLEDEEGESGLSADGDSEDDDGSLGEVDLPLSDEEPSSKKRKV
modifications: MTSL spin label (R1) on cysteine 56; deuterated protein
notes: Vps75 of budding yeast, open reading frame, unique cysteine at position 56; also called Vps75 E56C; not shown: His6, N-terminal, cleaved
As to B3, the “stoichiometry N” value in [12] came out at 4.

B4: Vps75 R164D (natural protein, budding yeast, UniProt P53853 1-264, looked up)
chain: MMSDQENENEHAKAFLGLAKAEEEVDAIEREVELYRLNKMKPVYEKRDAYIDEIAEFWKIVLSQHVSFANYIRASDFKYIDTIDKIKVEWLALESEMYDTRDFSITFHFHGIEGDFKEQQVTKVFQIKKGKDDQEDGILTSEPVPIEWPQSYDSINPDLIKDKDSPEGKKKYRQGMKTIFGWFRWTGLKPGKEFPHGDSLASLFSEEIYPFAVKYYAEAQRDLEDEEGESGLSADGDSEDDDGSLGEVDLPLSDEEPSSKKRKV
notes: as for B2
In the case of B4, in data set [13], the “stoichiometry N” value was around 2.

B5: Vps75 triple mutant protein (R164D, K169E, K170E) (natural protein, budding yeast, UniProt P53853 1-264, looked up)
chain: MMSDQENENEHAKAFLGLAKAEEEVDAIEREVELYRLNKMKPVYEKRDAYIDEIAEFWKIVLSQHVSFANYIRASDFKYIDTIDKIKVEWLALESEMYDTRDFSITFHFHGIEGDFKEQQVTKVFQIKKGKDDQEDGILTSEPVPIEWPQSYDSINPDLIKDKDSPEGEEKYRQGMKTIFGWFRWTGLKPGKEFPHGDSLASLFSEEIYPFAVKYYAEAQRDLEDEEGESGLSADGDSEDDDGSLGEVDLPLSDEEPSSKKRKV
notes: Vps75 of budding yeast, mutant in the C21A/C212A construct
In the case of B5, in [13], the “stoichiometry N” value is 2.

B6: Vps75 K169E (natural protein, budding yeast, UniProt P53853 1-264, looked up)
chain: MMSDQENENEHAKAFLGLAKAEEEVDAIEREVELYRLNKMKPVYEKRDAYIDEIAEFWKIVLSQHVSFANYIRASDFKYIDTIDKIKVEWLALESEMYDTRDFSITFHFHGIEGDFKEQQVTKVFQIKKGKDDQEDGILTSEPVPIEWPQSYDSINPDLIKDKRSPEGEKKYRQGMKTIFGWFRWTGLKPGKEFPHGDSLASLFSEEIYPFAVKYYAEAQRDLEDEEGESGLSADGDSEDDDGSLGEVDLPLSDEEPSSKKRKV
notes: as for B2
Regarding B6, the “stoichiometry N” value in [13] is around 2.

B7: Nap1 PPP mutant (R301P, T302P, K305P) (natural protein)
chain: MSDPIRTKPKSSMQIDNAPTPHNTPASVLNPSYLKNGNPVRAQAQEQDDKIGTINEEDILANQPLLLQSIQDRLGSLVGQDSGYVGGLPKNVKEKLLSLKTLQSELFEVEKEFQVEMFELENKFLQKYKPIWEQRSRIISGQEQPKPEQIAKGQEIVESLNETELLVDEEEKAQNDSEEEQVKGIPSFWLTALENLPIVADTITDRDAEVLEYLQDIGLEYLTDGRPGFKLLFRFDSSANPFFTNDILAKTYFYQKELGYSGDFIYDHAEGAEISWKDNAHNVTVDLEMRKQRNKTTKQVPPIEPITPIESFFNFFDPPKIQNEDQDEELEEDLEERLALDYSIGEQLKDKLIPRAVDWFTGAALEFEFEEDEEEADEDEDEEEDDDHGLEDDDGESAEEQDDFAGRPEQAPEAKQS
For B7, in data set [13], the “stoichiometry N” value was around 2.

B8: Nap1 E209R1 (natural protein, budding yeast, UniProt P25293 1-417, looked up)
chain: MSDPIRTKPKSSMQIDNAPTPHNTPASVLNPSYLKNGNPVRAQAQEQDDKIGTINEEDILANQPLLLQSIQDRLGSLVGQDSGYVGGLPKNVKEKLLSLKTLQSELFEVEKEFQVEMFELENKFLQKYKPIWEQRSRIISGQEQPKPEQIAKGQEIVESLNETELLVDEEEKAQNDSEEEQVKGIPSFWLTALENLPIVADTITDRDACVLEYLQDIGLEYLTDGRPGFKLLFRFDSSANPFFTNDILAKTYFYQKELGYSGDFIYDHAEGAEISWKDNAHNVTVDLEMRKQRNKTTKQVRTIEKITPIESFFNFFDPPKIQNEDQDEELEEDLEERLALDYSIGEQLKDKLIPRAVDWFTGAALEFEFEEDEEEADEDEDEEEDDDHGLEDDDGESAEEQDDFAGRPEQAPEAKQS
modifications: MTSL spin label (R1) on cysteine 209; deuterated protein
notes: Nap1 of budding yeast, open reading frame, unique cysteine at position 209; also called Nap1 E209C; not shown: His6, N-terminal, cleaved
Turning to B8, the “stoichiometry N” value stood at 2 in data set [14] and 4 in [12].

B9: Nap1 T251R1 (natural protein, budding yeast, UniProt P25293 1-417, looked up)
chain: MSDPIRTKPKSSMQIDNAPTPHNTPASVLNPSYLKNGNPVRAQAQEQDDKIGTINEEDILANQPLLLQSIQDRLGSLVGQDSGYVGGLPKNVKEKLLSLKTLQSELFEVEKEFQVEMFELENKFLQKYKPIWEQRSRIISGQEQPKPEQIAKGQEIVESLNETELLVDEEEKAQNDSEEEQVKGIPSFWLTALENLPIVADTITDRDAEVLEYLQDIGLEYLTDGRPGFKLLFRFDSSANPFFTNDILAKCYFYQKELGYSGDFIYDHAEGAEISWKDNAHNVTVDLEMRKQRNKTTKQVRTIEKITPIESFFNFFDPPKIQNEDQDEELEEDLEERLALDYSIGEQLKDKLIPRAVDWFTGAALEFEFEEDEEEADEDEDEEEDDDHGLEDDDGESAEEQDDFAGRPEQAPEAKQS
modifications: MTSL spin label (R1) on cysteine 251; deuterated protein
notes: Nap1 of budding yeast, open reading frame, unique cysteine at position 251; also called Nap1 T251C; not shown: His6, N-terminal, cleaved
For the molecule B9, the “stoichiometry N” value in data set [14] worked out at 2; in data set [12] it was 4.

B10: Nap1 T307R1 (natural protein, budding yeast, UniProt P25293 1-417, looked up)
chain: MSDPIRTKPKSSMQIDNAPTPHNTPASVLNPSYLKNGNPVRAQAQEQDDKIGTINEEDILANQPLLLQSIQDRLGSLVGQDSGYVGGLPKNVKEKLLSLKTLQSELFEVEKEFQVEMFELENKFLQKYKPIWEQRSRIISGQEQPKPEQIAKGQEIVESLNETELLVDEEEKAQNDSEEEQVKGIPSFWLTALENLPIVADTITDRDAEVLEYLQDIGLEYLTDGRPGFKLLFRFDSSANPFFTNDILAKTYFYQKELGYSGDFIYDHAEGAEISWKDNAHNVTVDLEMRKQRNKTTKQVRTIEKICPIESFFNFFDPPKIQNEDQDEELEEDLEERLALDYSIGEQLKDKLIPRAVDWFTGAALEFEFEEDEEEADEDEDEEEDDDHGLEDDDGESAEEQDDFAGRPEQAPEAKQS
modifications: MTSL spin label (R1) on cysteine 307; deuterated protein
notes: Nap1 of budding yeast, open reading frame, unique cysteine at position 307; also called Nap1 T307C; not shown: His6, N-terminal, cleaved
Turning to B10, the entries for the “stoichiometry N” value in [14] and in data set [12] were 2 and 4, respectively.

(Values after publication PMC4027167, “The histone chaperones Vps75 and Nap1 form ring-like, tetrameric structures in solution” (Nucleic Acids Research, 2014).)
